Measured values published in US20140030278A1.

Assays:
[1] = target: Recombinant human TNF-alpha (human) (UniProt P01375); experiment: ELISA of unbound rhTNF-alpha after pre-incubation; preparation 1; printed as 7.948e-009 g/ml; conditions: Fc fusion
[2] = target: Recombinant human TNF-alpha (human) (UniProt P01375); experiment: ELISA of unbound rhTNF-alpha after pre-incubation; preparation 2; printed as 4.220e-009 g/ml; conditions: Fc fusion

Chain of Recombinant human TNF-alpha (human) (P01375 77-233): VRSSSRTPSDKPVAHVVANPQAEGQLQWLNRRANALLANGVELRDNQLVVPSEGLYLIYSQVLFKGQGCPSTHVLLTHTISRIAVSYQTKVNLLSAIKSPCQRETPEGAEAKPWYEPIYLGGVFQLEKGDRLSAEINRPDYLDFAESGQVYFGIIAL

- IC50 [1]: 7.95 ng/mL
- IC50 [2]: 4.22 ng/mL
Substance: PEG20-etanercept (5 eq)
